Experiments:
[1] = target: CXCL8-(1-66) P32G mutant, 15N-labelled (human, 15N-labelled); assay: NMR titration
[2] = target: CXCL8-(1-66) truncated monomer (human); assay: NMR titration

Kd [1]: 11 ± 1 µM | Kd [2]: 12 ± 2 µM
Binder: LWTWFEDEFANATGMPPVEKDYSPCLVVTQTLNK [CXCR1 N-terminal domain peptide]
